Data on 21 sequences can be found in the DeepSol protein solubility set.

The nature of this data set: soluble on expression in E. coli; label from the status in PepcDB or PDB records.
Regarding “MASSINGRKPSEIFKAQALLYKHIYAFIDSMSLKWAVEMNIPNIIQNHGKPISLSNLVSILQVPSSKIGNVRRLMRYLAHNGFFEIITKEEESYALTVASELLVRGSDLCLAPMVECVLDPTLSGSYHELKKWIYEEDLTLFGVTLGSGFWDFLDKNPEYNTSFNDAMASDSKLINLALRDCDFVFDGLESIVDVGGGTGTTAKIICETFPKLKCIVFDRPQVVENLSGSNNLTYVGGDMFTSIPNADAVLLKYILHNWTDKDCLRILKKCKEAVTNDGKRGKVTIIDMVIDKKKDENQVTQIKLLMDVNMACLNGKERNEEEWKKLFIEAGFQHYKISPLTGFLSLIEIYP”, the “soluble on expression in E. coli” value was “soluble”. To “MASSINNRKPSEIFKAQALLYKNMYAFVDSMSLKWSIEMNIPNIIHNHGKPITLSNLVSILQIPSTKVDNVQRLMRYLAHNGFFEIITNQELENEEEAYALTVASELLVKGTELCLAPMVECVLDPTLSTSFHNLKKWVYEEDLTLFAVNLGCDLWEFLNKNPEYNTLYNDALASDSKMINLAMKDCNLVFEGLESIVDVGGGNGTTGKIICETFPKLTCVVFDRPKVVENLCGSNNLTYVGGDMFISVPKADAVLLKAVLHDWTDKDCIKILKKCKEAVTSDGKRGKVIVIDMVINEKKDENQLTQIKLLMNVTISCVNGKERNEEEWKKLFIEAGFQDYKISPFTGLMSLIEIYP” belongs “soluble”. Turning to “MASSNLIKQLQERGLVAQVTDEEALAERLAQGPIALYCGFDPTADSLHLGHLVPLLCLKRFQQAGHKPVALVGGATGLIGDPSFKAAERKLNTEETVQEWVDKIRKQVAPFLDFDCGENSAIAANNYDWFGNMNVLTFLRDIGKHFSVNQMINKEAVKQRLNREDQGISFTEFSYNLLQGYDFACLNKQYGVVLQIGGSDQWGNITSGIDLTRRLHQNQVFGLTVPLITKADGTKFGKTEGGAVWLDPKKTSPYKFYQFWINTADADVYRFLKFFTFMSIEEINALEEEDKNSGKAPRAQYVLAEQVTRLVHGEEGLQAAKRITECLFSGSLSALSEADFEQLAQDGVPMVEMEKGADLMQALVDSELQPSRGQARKTIASNAITINGEKQSDPEYFFKEEDRLFGRFTLLRRGKKNYCLICWK”, the “soluble on expression in E. coli” value is given as “soluble”. In the case of “MASSSLVRIAVVGDIHGFWNLDEDRKALRVLQERKTKTKRCSNATRYMDFPSFKLSIVGGRPFSHGGDRLFRKNLLVQRYGVHDMEASAGSICRAAHGTPEDHVAIILAHNGPTGLGWQAEDICGKDWGAEGGDHGDPDLEQAIRQLKETTKLSIPLVVFGHMHKELQRGKGNRKMVVQDSDNQTVYVNGAIVPRVKEAKKRGAAESESGGTTRAFTLVEILDGKIKKIAEIWVHVNGSMAKIVEENTLFEDVT”, the “soluble on expression in E. coli” value was “soluble”.

As to “MASSVDEEALHQLYLWVDNIPLSRPKRNLSRDFSDGVLVAEVIKFYFPKMVEMHNYVPANSLQQKLSNWGHLNRKVLKRLNFSVPDDVMRKIAQCAPGVVELVLIPLRQRLEERQRRRKQGAGSLQELAPQDGSGYMDVGKVAFSISPSRLELSFCPSSCHL”, the “soluble on expression in E. coli” value is on record as “not soluble”. As to “MASTPCAACKLLRRKCTQECVFAPYFPPTNPQKFIFVHRVFGASNVTKILNDLPPDQREDTVNSLFYEAEARIRDPIYGCVGLISFLQQYLKKIQQDLLTAKEELVGYLGPDAVIPPPYLPPIGNNPPPNFMMSMEGMPPGVIPQGEPLMIREPNMSQQHHHQQPQDEQLQFIASDAQRMAAMMLERGDQQGMFNGYGIDNNGSVTATGFNQMDVNDQGAGGSLSGPSLALGSFGDAYQMGQETEHGHINHDQLQTQLMLQPPLQEGQEQTEEGQFLMQPMGQENLHDEEEEEELEPPVKWRMSENKEASF”, the “soluble on expression in E. coli” value was “not soluble”. With “MASVPVYCLCRLPYDVTRFMIECDMCQDWFHGSCVGVEEEKAADIDLYHCPNCEVLHGPSIMKKRRGSSKGHDTHKGKPVKTGSPTFVRELRSRTFDSSDEVILKPTGNQLTVEFLEENSFSVPILVLKKDGLGMTLPSPSFTVRDVEHYVGSDKEIDVIDVTRQADCKMKLGDFVKYYYSGKREKVLNVISLEFSDTRLSNLVETPKIVRKLSWVENLWPEECVFERPNVQKYCLMSVRDSYTDFHIDFGGTSVWYHVLKGEKIFYLIRPTNANLTLFECWSSSSNQNEMFFGDQVDKCYKCSVKQGQTLFIPTGWIHAVLTPVDCLAFGGNFLHSLNIEMQLKAYEIEKRLSTADLFRFPNFETICWYVGKHILDIFRGLRENRRHPASYLVHGGKALNLAFRAWTRKEALPDHEDEIPETVRTVQLIKDLAREIRLVEDIFQQN” the entry was “soluble”; with “MASYTSEQAEALLKLQFDKYAKFIDDEVWAEVEGYYHPSGVLVHKGKEAVYGNKDKSTYIAKFAEGTGKSVGTTTNAKYEGSGDYLIITADFSSETEKAGTVKGRFVQI”, “not soluble”. Turning to “MATAKKITIHDVALAAGVSVSTVSLVLSGKGRISTATGERVNAAIEELGFVRNRQASALRGGQSGVIGLIVRDLSAPFYAELTAGLTEALEAQGRMVFLLHGGKDGEQLAQRFSLLLNQGVDGVVIAGAAGSSDDLRRMAEEKAIPVIFASRASYLDDVDTVRPDNMQAAQLLTEHLIRNGHQRIAWLGGQSSSLTRAERVGGYCATLLKFGLPFHSDWVLECTSSQKQAAEAITALLRHNPTISAVVCYNETIAMGAWFGLLKAGRQSGESGVDRYFEQQVSLAAFTDATPTTLDDIPVTWASTPARELGITLADRMMQKITHEETHSRNLIIPARLIAAK”, the “soluble on expression in E. coli” value is “not soluble”.

On to “MATAVKLSGISKTFGSLKANDNVSLSIEAGSIHALVGENGAGKSTLSNIIYGLLHPDSGTIEIDGKAVKFSSVRQAIEAGIGMVHQHFMLVPTLSVTENIILGKEESRLALPTRRIGKEIRQLSQQHGLEVDPDALVSTLSVGEQQRVEILKLLYRRAKLLILDEPTAVLSPPETARLFATLRSLAAEGRTVLLITHKLDEVLTVSDSVSVMRKGSLVGTVPTTSTSKEDLARMMVGRDVLLRTANAPQTPGKTVLSIDKLTYRSPLGIDKLTGLTLHVRAGEIYGIAGVEGNGQSELLSLLWGTFDRSGKTGGSITIDAQETLGKNPSEIAALGVSMIPEDRHKSAIIAEYGIEENLILGRHREKAFHRGIGFDRDAVHKNATAMIEQYDIRCAAGTNPPIASLSGGNQQKIVVAREMERPQLKLLVLAQPTRGVDIGAIEQIHKRIIDARKSGLAILLISSELEEIVALSTRIGCLYKGAIRHEFSETEVWRGRDHESGFEKEIGMHITLEHHHHHH”, for which the “soluble on expression in E. coli” value was “soluble”. With “MATEPPKIVWNEGKRRFETEDHEAFIEYKMRNNGKVMDLVHTYVPSFKRGLGLASHLCVAAFEHASSHSISIIPSCSYVSDTFLPRNPSWKPLIHSEVFKSSI” the entry was “soluble”; with “MATGVIRGAELSPSYIIEEILGLYQNIVVLSNEEIVYGLSDRNRELFQELEYLVSLEVEDSVVQDILQKKELEPAFTEIKRFRNLYTVRLETEHAKEILSSDSPWASLEMFSFYGNYLKLVRTEYEGLRLSSGDTVFFLGSGPLPLTLIVFFRLYGVKSTGIEKDSFRANLSKKVLEKLGLSSVIKIVNGNHFSLSRKDLSLSPDTGVKALMIAAQAEPKKEIFEHLLEVMPIGGRISCRIYEKGLRKLLSGNCLFDLPEGFVEQERVQPQPPVYNTVIFFEKKRLEHHHHHH”, “not soluble”.

As for “MATLTAKNLAKAYKGRRVVEDVSLTVNSGEIVGLLGPNGAGKTTTFYMVVGIVPRDAGNIIIDDDDISLLPLHARARRGIGYLPQEASIFRRLSVYDNLMAVLQIRDDLSAEQREDRANELMEEFHIEHLRDSMGQSLSGGERRRVEIARALAANPKFILLDEPFAGVDPISVIDIKRIIEHLRDSGLGVLITDHNVRETLAVCERAYIVSQGHLIAHGTPTEILQDEHVKRVYLGEDFRL”, the “soluble on expression in E. coli” value was “soluble”. To “MATRADEDGDTPLHIAVVQGNLPAVHRLVNLFQQGGRELDIYNNLRQTPLHLAVITTLPSVVRLLVTAGASPMALDRHGQTAAHLACEHRSPTCLRALLDSAAPGTLDLEARNYDGLTALHVAVNTECQETVQLLLERGADIDAVDIKSGRSPLIHAVENNSLSMVQLLLQHGANVNAQMYSGSSALHSASGRGLLPLVRTLVRSGADSSLKNCHNDTPLMVARSRRVIDILRGKATRPAS” belongs “soluble”; to “MATRRRIGVAAIQKKQETANKFAAKGDQMAGEQLVQFSQQLEQLSAGLEMFAQRHRDEIKKNSQFRRHFQEMCASVGVDPLASSKGFWAKALGFGDFYYELGIQIVEICLSTTHINGGIMTVEEIRNRLMRTRSRTRKDTISTDDILRAVDKLKVLGNGFELVPLGGGRFLVQSVPGELSMDHSRVLQLAEDAAYVTKELIIDKLRWDEARASSALEHLVKEGLAWTDEQASDTTQYWFPSLFLQQYCHSSSSTSVSESLHSMSFNNYQ”, “not soluble”. To “MATRSCVSRGSAGSAAAGPVEAAIRAKLEQALSPEVLELRNESGGHAVPAGSETHFRVAVVSSRFEGMSPLQRHRLVHEALSEELAGPVHALAIQAKTPAQWRENPQLDISPPCLG” belongs “soluble”. With “MATSGFKHLVVVKFKEDTKVDEILKGLENLVSQIDTVKSFEWGEDKESHDMLRQGFTHAFSMTFENKDGYVAFTSHPLHVEFSAAFTAVIDKIVLLDFPVAAVKSSVVATP” the entry was “soluble”; with “MATYNGQGFIHDQLDSIRNQTLRPDYVLMRDDGSTDDTVKVVEDYIKEHRLDGWSITSNDKNLGWRLNFRQLLIDVLAYEVDYVFFSDQDDTWYHHKNKMQVDIMEERQDINLLSADIDIKKLSEEATIPNNFKFNGEETISKYPLDFSYHNYRQGWTFCLRKSFVDQVMTFYSDNLILSHDNLFAGVSGVIGSGYNLNRSVGEHKRHAENASGNILNMSSSYERHLQELYFVLSYYIILVPFLEKSSSSQLREAKAYLDFNQQRYKNAQNKDFVAILKQMMTKKRFYDSFSNRIRDLVFLLKDIKRS”, “not soluble”. On to “MAVEVVMPKLGMAMKEGIITSWNIKAGDNVAKGELIASINSEKIETEIEAPADGTILDIAVSEDEGVPPGTVICYIGKPNEKVEVHESTKVEEELTASEVPQNVQHPEPLGKEVTNKQRIKISPVAKKIAKTENLDIRALLGTGPGGRITKVDVLKALEERVAIPEVLEESKVLPVTGMRKAIANRMHASLQNSAQLTLTMKVDVTDLVALHKEIAEVVQKRYDNKLTITDFVSRAVVLALGEHKEMNSAYIDDAIHQFEHVHLGMAVALEKGLVVPAIRFANNLSLVELSKEIKNAAQKARAGNLNSDDMQGTTFTISNLGSFGIEYFTPVLNTPETGILGVGAIEHVPVYKGKKLKKGSMLPLSLTFDHRVLDGAPAAAFLRTIKRYLEEPVTILL”, for which the “soluble on expression in E. coli” value is recorded as “not soluble”. Consider “MAVGAALPPIPEGAPVLIAGPTASGKSALALEIAERFGGVIVNADASQVYDCWRAISARPSPEEEARAPHLLYGHLPYDAPYSAGHWLREVTPLLDGTARPIIVGGTGLYFTALTEGMADIPATPPDVRAEADTLPLDRLLAGIDPATAAGLDRNNRARVQRAWEVERATGRALHLWQADTPPPPLPLARTVPLVLEVDKLWLWDRIARRFDQMLDQGALDEVAAMAARYDPALPAFKAIGVPELMAHLRGEITLDAARERASIATRQYAKRQRSWFRARMGDWHRLPVGGLEHHHHHH”, for which the “soluble on expression in E. coli” value is given as “not soluble”. To “MAVGTEESDFEGWAFPFPGVMLIEDFVTREEEAELVRLMDRDPWKLSQSGRRKQDYGPKVNFRKQKLKTEGFCGLPSFSREVVRRMGLYPGLEGFRPVEQCNLDYCPERGSAIDPHLDDAWLWGERLVSLNLLSPTVLSMCREAPGSLLLCSAPSAAPEALVDSVIAPSRSVLCQEVEVAIPLPARSLLVLTGAARHQWKHAIHRRHIEARRVCVTFRELSAEFGPGGRQQELGQELLRIALSFQGRPVLEHHHHHH” belongs “soluble”.
